Biological target: the molecule itself
Assay: SEC

B1: Pseudomonas aeruginosa bacterioferritin B (natural protein)
chain: not shown
Q: With B1 as the protein, how does the “stoichiometry N” value read?
A: 24
